Laboratory results as given in article PMC7568252, “Recombinant expression of an L‐amino acid oxidase from the fungus Hebeloma cylindrosporum in Pichia pastoris including fermentation” (MicrobiologyOpen, 2020).

Experiments:
Test in all cases: purified protein
Conditions in all cases: untreated (not acid-activated) enzyme, 50 mM TEA/HCl pH 7.0, 30°C
purified protein [1] = substrate: CC(C)C[C@H](N)C(=O)O
purified protein [2] = substrate: COC(=O)[C@@H](N)CC(C)C
purified protein [3] = substrate: CSCC[C@H](N)C(=O)O
purified protein [4] = substrate: NC(=O)CC[C@H](N)C(=O)O
purified protein [5] = substrate: N[C@@H](Cc1ccccc1)C(=O)O

B1: 9-hcLAAO4 (9His-hcLAAO4) (Hebeloma cylindrosporum) (protein)
chain: ADTTSVPFDAESRDQIFQHHARSVISGYTNTLGEKNISVPSSPPGGERVGILGAGIGGLYSALILQSLDVPFEIIEASNRVGGRLFTHKFPNGGKYDYYDVGAMRYPLPKSDDKGNYQPGVMQRVGQLFTYLGMHKQLIPYYFKSNKSPGFQYFNGVRARIGEGSSFDAPALGINSSLIDIGVTKIVNDAVGPFAQALFDDLQKHTTTGWDDMMKNDAYSTRSYFSFKYLPSPSFGLPSEHFSTRVINWLETFDKSTGWYDRGLTETVLEAIAFGEVGDGEVDWRCIDGGSHVLPDTIAAFLHKKGGNAFVMNASVTAIGLENPNKEDSPMVVVAGGQKRKYSHVISTLPLPVLRTVDLKNSKLDIVQSNALRKLQYGPSIKIGILFKEPWWTTGQDKNGEKFDLVGGQSYTDLPIRTVVYPSYGVNTNAPSNTLIASYCWTNDAERMGSLIGTGKKTYEEQLEHLVLSNLAAVHNTDYQYLKDRLVDVHSWDWNHNPLTMGAFAFFGPGDFQDLYTSLNRPAANGKLHFAGEALSVRHAWVVGALDSAWRAVYNYLYVTDPAKLPKFFELWGKNAEWFEQPGDGKEPNSDNSLLEKFVRRTHGTVSV
Km (purified protein [1]): 40 ± 40 µM
Vmax (purified protein [1]): 7.67 µmol/min/mg
Km (purified protein [2]): 3010 ± 680 µM
Vmax (purified protein [2]): 8.41 µmol/min/mg
Km (purified protein [3]): 160 ± 100 µM
Vmax (purified protein [3]): 5.98 µmol/min/mg
Km (purified protein [4]): 510 ± 110 µM
Vmax (purified protein [4]): 8.87 µmol/min/mg
Km (purified protein [5]): 70 ± 70 µM
Vmax (purified protein [5]): 3.25 µmol/min/mg
